The text below walks through data of PMC6374102 (Science Advances, 2019).

A short description of data set [1]: In vitro release of LENK from NPs / bioconjugate stability in serum. It is filed as in vitro ADME. The following applies: diluted male SWISS mouse serum (30% in 5% dextrose), 37°C; RP-HPLC, UV 257 nm.
For data set [2], the system named is λ-carrageenan–induced inflammatory pain injected rats. Kind of data set: Hargreaves thermal nociception test in λ-carrageenan-induced paw edema model. Conditions: LENK-SQ NPs 20 mg/kg i.v.; morphine 1 mg/kg; rat. The data set is classed as in vivo.

With `CC(C)=CCC/C(C)=C/CC/C(C)=C/CC/C=C(\C)CC/C=C(\C)CCC(=O)OCOC(=O)C(CC(C)C)NC(=O)C(Cc1ccccc1)NC(=O)CNC(=O)CNC(=O)C(N)Cc1ccc(O)cc1` (centres unmarked) [LENK-SQ-Diox, Leu-enkephalin-squalene with dioxycarbonyl linker], in data set [1], the “Time that the released LENK peptide still lasted in serum” value is on record as “over 10 hours”. The “AUC of PWL time course, comparison between treatments” value in data set [2] was “significantly higher AUC than morphine and LENK-SQ-Am NPs”.
